Experimental data: the DeepSol protein solubility set

Assay: soluble on expression in E. coli; label from the status in PepcDB or PDB records

Sequence | soluble on expression in E. coli
MAHHHHHHMSLPRRMCMFATCQSNRKSCSMRQSSVTSEGYRYSSTFAAGRLFDAVYVINLDRRPDRWEFATQQLSRAGFLHEEYVRFPAVDGRNVDLQKAHACGLISRLGLLRLQEPEHRRIWGMDLNPGAVGCALSHALLWAQIAASRHRSVLVVEDDSLFPQDFHHKYEARAKQVPSDWELLYVSGLDTAGQAPQLRVAEGVCRVPQMHRTTNCYVVSHRGARLLLDACFPVTYQLDTMMTLRTAGDGAGGVPYVTVPNCYTLQPPLVVQATRMGSDIQSASGGVCDRDEVEEERARCRAAGWEVQETGTLVP | not soluble
MAHHHHHHMSRKRVRAEDIHYWLLKSEPHKFSIDDLAKQKTSPWDGVRNYAARNNMRAMSVGDKVLFYHSNTKEPGVAGLAEVVRLAYDDFTALDKTSEYFDPKATKEKNPWKMVDVKFVARWDTVLTLHELKSRRELQKMALFTQRRLSVQPVSASEYAYILRMNEEQQRK | soluble
MAHHHHHHMSSKRTEGTAADEERRRTSAASSGSSSVSSTDSDEASSSVSDSSSSGSGSSSDSESSDSERPSSTPQRQSAAAAERATSTQQLQQQRHVQLNPELRFERPDKEYIPLPPLRDMQDMVKVLFLLSTDKKRYPDGRHRTLDYFRVAVEMFVTEVRQEYKRQYQQAQRNGRAMQRFTWKNSGELAICFACCCDNVKLLYDSLQPGPLKPLWDAFVGQLPPMLIVQSRVPETMLSSQTYHTKYMDWVKGGTRYGGEQSTANVRFPSVADRRVKVETYLRSGAGYKIEAVQVGSTPAAPAAVPAAVAPRPSLAAAAAPMQALETRAPFAGRLPGTGSAKVPVAPGVGGPRPPVKVPMKHVGGGVAHGSVTTAAAPPLASTSVKQMPPEMKHLFWLSVLAHVKGGEASRAFPDDRLEALPGLLRLCEMTEHTEEMCILMDVLAASSSGVQTVFERLGGLLSFRRFASHFIQSEEAEPLMQLVEQLARWRVAAWGSTSQQAWQTDMNQRRTRDLMWLRTLPLIPEAKRAAWGALLLVMEQRYIFKAPRPDDTTAVDNPLKRRRSEVELGDLHAVLSDNVDMQRWVVPRVNVFSAVRLPVELRVPPLCTKLEENTVRFLNAKREYAEKMQVTWRERLEKILSAQPRAPGPAVPVPLWYDPYALLRVASPQP | soluble
MAHHHHHHMSSPQVVCEAKKAFEANKRVYESVLLTFKGVDGYDVYNCSVPFSYKGKTHIYGRVEKRDIWAASHVRLFEETGKDEFTAVPDGMTWLLEDPFVSSVKGEALFGGTRIRKVSNRLLSYYCDFFRGGIEQGLYFTTGPDNMKDIRCVELANGSIGVFSRPKTDVYTCIGFTIIDDLSELTQKVINEAEPLNVLHPGAWGGVNQAYLLTSGKVGCIAHYSYNSKDDKDCPTSVYLNYSFVLDPETKQAEMERIIGTRSCYPDYPVKAERLIDCAFSSGIVMREDGKCDLYSGLGDTCEGRIAIDYPFEGYGAVVDQLSF | soluble
MAHHHHHHMSSTASPNAALLAEINDLKVKLAEKEALLQPEGVVSKKSKKKSQANMIEKEPVQGCRDFPPEDMRVRRHLFGVFHETARKFGFEEYDAPVLESEELYIRKAGEEITDQMFNFVTKGGHRVTLRPEMTPSLVRLQLAKGRSLLLPAKWYSIPQCWRYEAISRGRRREHYQWNMDIVGVKSVAAEVELVCAACAAMESLGLTAQDVGVKVNSRKLLQCALAGAGVPDSLFAPVCVIVDKMEKLPEEQIRAELEDLALDGQQADDIIRTLSLRSVDDFDKNLFDKNGALSELAEFFSQMQMYGYGDWIQFDASVVRGLAYYTGIVFEAFDRSGEFRAIYGGGRYDNLFTLYGSPQPISCVGFGFGDCVIIELLKKKKLINSLPHKVDDVVIPFNESQRGTALKVLKQLRDKGRSADIIMDSKKVAQTFSYADRIGADRAVLIAPDETEKGMARVKMLREGQRGEDDRGDLVPFEDL | soluble
MAHHHHHHMSTSLRHTALHAFHVGRRARMAPFSGYDMPINYAAGAVREHLHTREAASIFDVSHFGVVEVFGADREKFLEWLTPSAPSRMPSGKAALTMFLNDRAGVKDDCIVTRYDDRLVVVVNAGCKDKMIAYMRQSVADFTGDVALEMEDRAIVTVQGPKAASALAPHVEDLDKLLFMQGRQDVDIRGMRIKTLTRCSYSGEDGFDIVMREEDALPIVELLLQNPDVQAAGLAARDTLRTEAGLNLYSHELSEDIDPVAARCMWCVPKHRMTEGGFVGHERLAQLVKKAKELVPRVRVGILAAPERGPIPRNGTPVLVEGKCVGVVTSGVPSPTLGRNIALGYVDRSYSNIGQQVGLDVRGKLVKAEIVNSRFVAPRYYRG | not soluble
MAHHHHHHMTATPEMAEYCLRVIAQQISAPDDPSVPLPVIPKEDSACFVTLTTLPQERLRGCIGSLQPGDLKKDMRRLALAAAFQDSRFPKVKEEELPTLRCCFSLLHTFEPCAAWNDWEIGKHGLIADYDGYSATYLPSVAEEQGWDHRETLVSLLEKAGFEKPVTDHVLGKVRLTRYQVSKALKDYKDIIAS | not soluble
MAHHHHHHMTGVASLHRESERSKRKSSGGERNADEADTEGTAGARNAHAKQKQKTVRQGVAVCVWCCGCLPALTARKQNKRERNVCSAPQALVARPHVTAPSARRSSRPLLMRAAGEAHRAVVMSVSVGVRVEQLGGKHTAPLTGRVQKKQLKEGRVEKKRTSTVIAPESKKEKGW | not soluble
MAHHHHHHMTIRVAINGYGRIGRNTLRAFYENGKKHDLEIVAINDLGDAKTNAHLTQYDTAHGKFPGEVSVDGDYLVVNGDRIRVLANRNPAELPWGELGVDVVMECTGFFTSKEKASAHLKGGAKKVIISAPGGKDVDATIVYGVNHDVLKAEHTVISNASCTTNCLAPLVKPLNDKIGLETGLMTTIHAYTNDQVLTDVYHEDLRRARSATHSQIPTKTGAAAAVGLVLPELNGKLDGYAIRVPTINVSIVDLSFIAKRDTTAAEVNAIMKEASEGALKGILGYNEAPLVSIDFNHNPASSTFDATLTKVSGRLVKVSSWYDNEWGFSNRMLDTAIALANAK | soluble
MAHHHHHHMTMAVDSHDPSVRYLFFEEQRQQKQQKQQVPVDGTSSGSLPLLYSARPACHPVDDVRSAAALRRITEGFLNLDQQMKMWRRHLHRKLGNLESRLSRCESVLLQKKTPVPQPAVVKASTTTYNDIYDGVEDEFKRLHLTVTALREKAAECCRDGQSFFPPKRQGKKGKGEPAGKHAMCDDEDVSIEGGGVFDSHCEHVGVAKRMSPTADTTAVGSGESVGLTPDGAEMPSACLFLGETVVDGDWQHVEGMQPREASCCLYKLQNQSSFQPTPSFSTMTPVSEQKYFAMDSTCRHDWSPFIHEPCRPEKRIVRGGKPATMDKTPTNVPDLRMRSTATTTQEKCCEINESPLVQASSLERRLIYSPETPKRMQGQVSPVPSDAARSASSSTKRGMEIPLSNADSVEHLHNLAEPALSSKPVTNGQKRPDATPSSQHGGAFVDAFASAVAGVPSSSPLYVLPQQIYSSRGNSCDRSSEWDNTEDEEKASESSNEEVLSAVALSMPTVGTVWQRVVSLAHAEQYYDQLSRLNHPPLSMLSSDTLEISELTVQET | not soluble
MAHHHHHHMTMFGKIHVYKRTYEICSIILKNYFVYYHPLYLDFYLSFAWYNKGSNNEKAFLHFLREFILLQINVCSKRCREKKMEILKMNENFEHLVFSIIFKNNKEEEDNKNKYDINENVNIRRLDNYVSSSFLNDICYPHCNIYNENKNFDILKNFDFLKSNILLASSLHYFINSLFCYYNNDDFINKYKSTDFIFDSILLCIKSLESVKRTYRLSTYTEKGFGNVCLDISLMIIKLKLKHPKFLEKKDNWMLYALRNAMEAEEVTEKK | not soluble
MAHHHHHHMTNRGVVNAEELRGAVCAIVSRYQKTPQRRLLVCVAGRPGSGKTTIANILAEEARELLRKVSSDPRDHAENAVVVMPMDGYHLYRKTLHAMPNREEAIARRGAEWTFDARKLCRDLQAIRLPSETADKKGAPLYDDVFVPSFDHSVGDPKERDICVSGSAAIVIVEGNYLLYRGTPTWAEVNRCFDMGVFQACPAATCARRLCRRHMAAWGISEAEAMVRATGSDAMNGDLVETTGKNADIVLHSIESSI | soluble
MAHHHHHHMTRVLVNREDCSVQVKGDLITFLYATVAKDPLVVASRNVTQLLRSRKDDTAAKLVADGESYVLKFESLRDREGFIESIVRAQEAEQALSNDEWVASTICHAAVDVGVLDQEELRAIMSAAGQRGVEQAFDALETLVDRETFQLLPITEQMENDVLRQTPVLAAIFQERVVDKETKKSFWEAVVRKYFCFSRTFLEEDIQRLEGARSVATAASPPLSGSAATSSLSVINASSMCALPKGAATAMLDTDINEEDLLHLDENVEPLQQSFHGLFAAHRHLPVGSASVLPVNGAALPFPQETAEPSPVYRPRFVGFRVLHQLPSETIEKAALETLRTFWRSSVKQRRSILAKYTRISKKGGGGFIQRMCLEQADRAVQNT | not soluble
MAHHHHHHMTSGPNNTTNIYDPIEVARANPYFKRNHMGQVTCTLCGIYCPEENNFLKHIAGKTHALQLERRQHKELRHLRLQEEERLNTEAEERARKEEALLALSGGQAGSGAAGGAGALSSAAAAAANARFGTPLYSFRTEHDEVAYRTKVWIEVMFTQAEEGTRPLHRWLSAREQHVEKPPDDYFVYLLFACEGYTTVALKFPAKANRSQPRDVLEEADGSTSEAYWCSWDPLQKVYTLFFALSR | soluble
MAHHHHHHMTSLHPFEYAFMAGASFSPEERVQLTSSLPLLSVQTKRKNLVLWGKIFGCKADYIIVEAFDDDAVVEPELYHTLDEGRTFSLLGTFSSVFSTCPGYSSCSGLQQAEWKQFMLLGMRGPFFGDPAYEYRVSNHSSSDSAPEIQSVKESVRLALFVEEFDHECRVVPRGAYMKAERQATATIASTTGAEVDAGERAEVRRNTALADFRERRRERCRCGTTTTCVP | not soluble
MAHHHHHHMVENELLYENDVSNSGLDGKPRLHSFFNKDGLLLRTYSWTVKKAIGIFLLIHGLNGHVRLQYLRQNVEVISNDKAILKDQDNYYVYKDSWIEKLNDKGYSVYGIDLQGHGLSEGWENLKANINNFDDLVYDVIQYLEEINRTVCLDYERNKYLRAIREKNTDMKALKKDKIPIYIMGLSMGGNVVLRTLELLGKSGDYKNLNIKGCISLSGMICLEELSSKASMKYKYFLVPFSKFISYIFPKCRINQNFNFEMFPFVNDIINFDKHRSKKWITFKFGHQILRSITNLRKDIQYIPKDIPILFVHSIHDCACYYGGVVTFYDQLDNDKKELYTIYDMDHLLTMEPGNEKVLEKVLDWISGSFNNKRRRRRTSS | not soluble
MAHHHHHHMVFFFPSFFFHNHDRELSCGKVSKAFIYIKKIHKMRRVSSLKEYNSLKEEAGNGLGLVVHFSASWCEPCKNVGSMLEGYLSQYNQKVLFAEVDADLVTNVCEAENVECVPFIVFFRTSSRERAQERVADVVGGKLDHLEMNLVSLYGNGHDTRESFPDLNEYLKYLTSRKGVVAFITGTPSRPRCGFTGRLVEIFYELGIKFIYYDVWASDEVCEGLKKYSEWPTYPQVYVDGELIGGYDICSQLKESGELKAILKH | soluble
MAHHHHHHMYAPFAAQEGNGGMFDFFFSAAASETLCASSAGSNSNNTGIGHGGGEAANGFNAASAGPLVENNNSNDDRVGRLNFDFASFFFQGGQSGAYDDSGLDAAGRGDDGSGADARRSEHYIQRGSADAADSTGKGVLPALGFFFPEDQVAPAAAGGSLILPPTSWCVESAAGADNRYSPPQVQPQNPAAVRETAASLKGDEAAHTVAPPGAALTVLKSDPTHIAPVDQTLVQRLPCEHASSSAMDHECSLAAALAAAPSSLGLLSDEESQRTTVPLSRTSDAEEAKCDETPTRLVAGNSCPEPEARDSSVAEGVAEEDAMPAPTHSRQPPPRVPVVSLPRSSHPPGAAPAGAVVTPTPPSPRQPPAPLTVSTSTPYRPEVPLLIGPAGHDATSVALSKAIGEAEEVWAHRLDMVPITCPERRDAEMGMSCSGFTPSSSSDAVFLAEVAQLQQQTARLTEESARSVTSLQVLTSDLLRILGPHAALSSFAGEQYAGTPLVHLPWALIAVLEGLLNDDADAEEKAEGQLVAPRPSSEGVESGSSGVHDA | not soluble
